Publication PMC5038948 (PLoS ONE, 2016)

B1: cationic antimicrobial protein of 37kDa (CAP37) (natural protein, human, UniProt P20160 27-251, looked up)
chain: IVGGRKARPRQFPFLASIQNQGRHFCGGALIHARFVMTAASCFQSQNPGVSTVVLGAYDLRRRERQSRQTFSISSMSENGYDPQQNLNDLMLLQLDREANLTSSVTILPLPLQNATVEAGTRCQVAGWGSQRSGGRLSRFPRFVNVTVTPEDQCRPNNVCTGVLTRRGGICNGDGGTPLVCEGLAHGVASFSLGPCGRGPDFFTRVALFRDWIDGVLNNPGPGPA
notes: cationic antimicrobial protein of 37kDa (CAP37, encoded by AZU1), human, purified from neutrophils, >95% pure by SDS-PAGE; also called AZU1; source: purified from human neutrophils; bought: Athens Research & Technology
B2: neutrophil elastase (enzyme)
chain: IVGGRRARPHAWPFMVSLQLRGGHFCGATLIAPNFVMSAAHCVANVNVRAVRVVLGAHNLSRREPTRQVFAVQRIFENGYDPVNLLNDIVILQLNGSATINANVQVAQLPAQGRRLGNGVQCLAMGWGLLGRNRGIASVLQELNVTVVTSLCRRSNVCTLVRGRQAGVCFGDSGSPLVCNGLIHGIASFVRGGCASGLYPDAFAPVAQFVNWIDSIIQ
modifications: native N-glycosylated, disulfide-bonded active enzyme from human neutrophils. Limits are not printed: the signal and activation dipeptide are removed (starts at 30), and the C-terminal propeptide is …
B3: cathepsin G (enzyme, human, UniProt P08311 21-244, looked up)
chain: IIGGRESRPHSRPYMAYLQIQSPAGQSRCGGFLVREDFVLTAAHCWGSNINVTLGAHNIQRRENTQQHITARRAIRHPQYNQRTIQNDIMLLQLSRRVRRNRNVNPVALPRAQEGLRPGTLCTVAGWGRVSMRRGTDTLREVQLRVQRDRQCLRIFGSYDPRRQICVGDRRERKAAFKGDSGGPLLCNNVAHGIVSYGKSSGVPPEVFTRVSSFLPWIRTTMRS
notes: cathepsin G (CTSG), human, purified from neutrophils, >95% pure by SDS-PAGE; also called CG; CTSG; source: purified from human neutrophils; bought: Athens Research & Technology

Experiments:
Settings in all cases: both partners purified
[1] = molecular target: T1, Recombinant human RAGE Fc chimera (human, UniProt Q15109 23-342); experiment: ELISA; CAP37, neutrophil elastase, cathepsin G or Aβ1-42 (0.5 μg/well) or BSA (1000 μg/well) coated on Maxisorp plates in PBS pH 7.4; RAGE Fc chimera 0–3.3 nM in PBST with 0.1% BSA, 37°C, 70 min; bound RAGE detected with goat anti-RAGE; BSA subtracted as background for KD
T1 construct: receptor for advanced glycation end products (RAGE), human, recombinant, fused to Fc; No catalogue number printed; also called receptor for advanced glycation end products; AGER; source: bought: R&D Systems
T1 sequence (Q15109 23-342, change not shown): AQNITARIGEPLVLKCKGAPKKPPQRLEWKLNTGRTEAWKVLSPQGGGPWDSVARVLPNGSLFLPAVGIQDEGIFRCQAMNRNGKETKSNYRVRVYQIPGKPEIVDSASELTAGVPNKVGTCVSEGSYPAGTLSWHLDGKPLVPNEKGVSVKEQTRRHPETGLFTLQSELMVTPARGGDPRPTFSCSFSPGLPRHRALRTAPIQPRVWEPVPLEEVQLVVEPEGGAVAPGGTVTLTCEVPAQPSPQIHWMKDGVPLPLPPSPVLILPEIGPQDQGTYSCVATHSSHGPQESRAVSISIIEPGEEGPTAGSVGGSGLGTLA

[2] = molecular target: T2, Amyloid beta 1–42 (Aβ1–42) (UniProt P05067 672-713); experiment: ELISA; CAP37, neutrophil elastase or cathepsin G (0.5 μg/well) or BSA (1000 μg/well) coated; Aβ1-42 0–111 nM in PBST with 0.1% BSA and protease inhibitor cocktail; bound Aβ1-42 detected with anti-APP/Aβ; BSA subtracted as background for KD
T2 construct: amyloid beta 1-42, the cut product of amyloid precursor protein (APP); numbers count on: the Aβ peptide; source: bought: Bachem (95.2% pure by HPLC), dissolved in 1 mM sodium hydroxide

[3] = molecular target: T1, Recombinant human RAGE Fc chimera; experiment: ELISA; competition: RAGE Fc chimera coated (0.5 μg/well, 83.3 nM); Aβ1-42 (11 nM) added at the same time as CAP37 (0–2.5 μM) or neutrophil elastase (0–0.5 μM); no protease inhibitors; bound Aβ1-42 detected with anti-APP/Aβ

Row | Binder | Kd [1] | Kd [2] | IC50 [3]
1 | B1 | 1.26 nM | 37.9 nM | 1280 nM
2 | B2 | 3.25 nM |  | 
3 | B3 | 0.45 nM | 20.7 nM | 
